According to patent US11130793B2, “GLP-1/GLP-2 dual agonists” (Zealand Pharma A/S, priority 2016, dated 2021):
Square brackets hold non-standard residues; d marks the D form. Aib = CC(C)(N)C(=O)O

T1: human GLP-2 receptor (hGLP2-R) (human, UniProt O95838)
T1 sequence: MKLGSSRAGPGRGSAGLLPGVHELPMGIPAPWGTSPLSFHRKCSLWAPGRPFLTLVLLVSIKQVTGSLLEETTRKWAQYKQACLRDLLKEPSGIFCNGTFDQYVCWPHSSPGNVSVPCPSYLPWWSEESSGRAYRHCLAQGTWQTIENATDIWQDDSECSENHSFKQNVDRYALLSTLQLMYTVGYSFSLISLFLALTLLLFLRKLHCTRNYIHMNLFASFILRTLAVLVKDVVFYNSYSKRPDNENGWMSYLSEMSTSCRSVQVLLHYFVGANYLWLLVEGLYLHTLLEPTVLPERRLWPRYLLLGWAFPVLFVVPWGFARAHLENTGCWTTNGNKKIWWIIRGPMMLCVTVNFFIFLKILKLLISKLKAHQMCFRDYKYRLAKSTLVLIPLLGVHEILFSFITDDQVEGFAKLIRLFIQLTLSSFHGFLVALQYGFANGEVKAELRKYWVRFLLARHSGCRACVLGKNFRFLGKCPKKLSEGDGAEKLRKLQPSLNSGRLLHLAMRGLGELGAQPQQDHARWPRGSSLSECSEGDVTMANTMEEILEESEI


Columns and labels:
[1] = biological target: human glucagon-like peptide 1 receptor (GLP-1R) (human, UniProt P43220); test: cell-based or functional assay
[2] = biological target: T1, human GLP-2 receptor (hGLP2-R); test: cell-based or functional assay

| Binder | EC50 GLP-1 (nM); cAMP AlphaScreen [1] [nM] | EC50 GLP-2 (nM); cAMP AlphaScreen [2] [nM] |
| --- | --- | --- |
| HGDGSFSDEMNTILDNLAARDFINWLIQTKITD [Teduglutide ([Gly2]-hGLP-2 (1-33))] | 39 |  |
| H-H[Aib]EGSFTSELATILDEQAARDFIAWLIEHKITD-OH (SMILES CC[C@H](C)[C@H](NC(=O)[C@H](Cc1ccccc1)NC(=O)[C@H](CC(=O)O)NC(=O)[C@H](CCCNC(=N)N)NC(=O)[C@H](C)NC(=O)[C@H](C)NC(=O)[C@H](CCC(N)=O)NC(=O)[C@H](CCC(=O)O)NC(=O)[C@H](CC(=O)O)NC(=O)[C@H](CC(C)C)NC(=O)[C@@H](NC(=O)[C@@H](NC(=O)[C@H](C)NC(=O)[C@H](CC(C)C)NC(=O)[C@H](CCC(=O)O)NC(=O)[C@H](CO)NC(=O)[C@@H](NC(=O)[C@H](Cc1ccccc1)NC(=O)[C@H](CO)NC(=O)CNC(=O)[C@H](CCC(=O)O)NC(=O)C(C)(C)NC(=O)[C@@H](N)Cc1c[nH]cn1)[C@@H](C)O)[C@@H](C)O)[C@@H](C)CC)C(=O)N[C@@H](C)C(=O)N[C@@H](Cc1c[nH]c2ccccc12)C(=O)N[C@@H](CC(C)C)C(=O)N[C@H](C(=O)N[C@@H](CCC(=O)O)C(=O)N[C@@H](Cc1c[nH]cn1)C(=O)N[C@@H](CCCCN)C(=O)N[C@H](C(=O)N[C@H](C(=O)N[C@@H](CC(=O)O)C(=O)O)[C@@H](C)O)[C@@H](C)CC)[C@@H](C)CC) [Compound 4] | 0.015 | 0.044 |
| H-H[Aib]EGTFTDELATILDEQAARDFIAWLIAHKITD-OH (SMILES CC[C@H](C)[C@H](NC(=O)[C@H](CC(C)C)NC(=O)[C@H](Cc1c[nH]c2ccccc12)NC(=O)[C@H](C)NC(=O)[C@@H](NC(=O)[C@H](Cc1ccccc1)NC(=O)[C@H](CC(=O)O)NC(=O)[C@H](CCCNC(=N)N)NC(=O)[C@H](C)NC(=O)[C@H](C)NC(=O)[C@H](CCC(N)=O)NC(=O)[C@H](CCC(=O)O)NC(=O)[C@H](CC(=O)O)NC(=O)[C@H](CC(C)C)NC(=O)[C@@H](NC(=O)[C@@H](NC(=O)[C@H](C)NC(=O)[C@H](CC(C)C)NC(=O)[C@H](CCC(=O)O)NC(=O)[C@H](CC(=O)O)NC(=O)[C@@H](NC(=O)[C@H](Cc1ccccc1)NC(=O)[C@@H](NC(=O)CNC(=O)[C@H](CCC(=O)O)NC(=O)C(C)(C)NC(=O)[C@@H](N)Cc1c[nH]cn1)[C@@H](C)O)[C@@H](C)O)[C@@H](C)O)[C@@H](C)CC)[C@@H](C)CC)C(=O)N[C@@H](C)C(=O)N[C@@H](Cc1c[nH]cn1)C(=O)N[C@@H](CCCCN)C(=O)N[C@H](C(=O)N[C@H](C(=O)N[C@@H](CC(=O)O)C(=O)O)[C@@H](C)O)[C@@H](C)CC) [Compound 9] | 0.007 | 0.041 |
| H-H[Aib]EGSFTSELATILDEQAARDFIAWLILHKITD-OH (SMILES CC[C@H](C)[C@H](NC(=O)[C@H](Cc1ccccc1)NC(=O)[C@H](CC(=O)O)NC(=O)[C@H](CCCNC(=N)N)NC(=O)[C@H](C)NC(=O)[C@H](C)NC(=O)[C@H](CCC(N)=O)NC(=O)[C@H](CCC(=O)O)NC(=O)[C@H](CC(=O)O)NC(=O)[C@H](CC(C)C)NC(=O)[C@@H](NC(=O)[C@@H](NC(=O)[C@H](C)NC(=O)[C@H](CC(C)C)NC(=O)[C@H](CCC(=O)O)NC(=O)[C@H](CO)NC(=O)[C@@H](NC(=O)[C@H](Cc1ccccc1)NC(=O)[C@H](CO)NC(=O)CNC(=O)[C@H](CCC(=O)O)NC(=O)C(C)(C)NC(=O)[C@@H](N)Cc1c[nH]cn1)[C@@H](C)O)[C@@H](C)O)[C@@H](C)CC)C(=O)N[C@@H](C)C(=O)N[C@@H](Cc1c[nH]c2ccccc12)C(=O)N[C@@H](CC(C)C)C(=O)N[C@H](C(=O)N[C@@H](CC(C)C)C(=O)N[C@@H](Cc1c[nH]cn1)C(=O)N[C@@H](CCCCN)C(=O)N[C@H](C(=O)N[C@H](C(=O)N[C@@H](CC(=O)O)C(=O)O)[C@@H](C)O)[C@@H](C)CC)[C@@H](C)CC) [Compound 8] | 0.021 | 0.084 |

The remaining lines, values ahead:

| EC50 GLP-1 (nM); cAMP AlphaScreen [1] [nM] | EC50 GLP-2 (nM); cAMP AlphaScreen [2] [nM] | Binder |
| --- | --- | --- |
| 0.0074 | 0.036 | H-H[Aib]EGTFTSELATILDEQAARDFIAWLIAHKITD-OH (SMILES CC[C@H](C)[C@H](NC(=O)[C@H](CC(C)C)NC(=O)[C@H](Cc1c[nH]c2ccccc12)NC(=O)[C@H](C)NC(=O)[C@@H](NC(=O)[C@H](Cc1ccccc1)NC(=O)[C@H](CC(=O)O)NC(=O)[C@H](CCCNC(=N)N)NC(=O)[C@H](C)NC(=O)[C@H](C)NC(=O)[C@H](CCC(N)=O)NC(=O)[C@H](CCC(=O)O)NC(=O)[C@H](CC(=O)O)NC(=O)[C@H](CC(C)C)NC(=O)[C@@H](NC(=O)[C@@H](NC(=O)[C@H](C)NC(=O)[C@H](CC(C)C)NC(=O)[C@H](CCC(=O)O)NC(=O)[C@H](CO)NC(=O)[C@@H](NC(=O)[C@H](Cc1ccccc1)NC(=O)[C@@H](NC(=O)CNC(=O)[C@H](CCC(=O)O)NC(=O)C(C)(C)NC(=O)[C@@H](N)Cc1c[nH]cn1)[C@@H](C)O)[C@@H](C)O)[C@@H](C)O)[C@@H](C)CC)[C@@H](C)CC)C(=O)N[C@@H](C)C(=O)N[C@@H](Cc1c[nH]cn1)C(=O)N[C@@H](CCCCN)C(=O)N[C@H](C(=O)N[C@H](C(=O)N[C@@H](CC(=O)O)C(=O)O)[C@@H](C)O)[C@@H](C)CC) [Compound 3] |
| 0.017 | 0.11 | H-H[Aib]EGSFTSELATILDEQAARDFIAWLIYHKITD-OH (SMILES CC[C@H](C)[C@H](NC(=O)[C@H](Cc1ccccc1)NC(=O)[C@H](CC(=O)O)NC(=O)[C@H](CCCNC(=N)N)NC(=O)[C@H](C)NC(=O)[C@H](C)NC(=O)[C@H](CCC(N)=O)NC(=O)[C@H](CCC(=O)O)NC(=O)[C@H](CC(=O)O)NC(=O)[C@H](CC(C)C)NC(=O)[C@@H](NC(=O)[C@@H](NC(=O)[C@H](C)NC(=O)[C@H](CC(C)C)NC(=O)[C@H](CCC(=O)O)NC(=O)[C@H](CO)NC(=O)[C@@H](NC(=O)[C@H](Cc1ccccc1)NC(=O)[C@H](CO)NC(=O)CNC(=O)[C@H](CCC(=O)O)NC(=O)C(C)(C)NC(=O)[C@@H](N)Cc1c[nH]cn1)[C@@H](C)O)[C@@H](C)O)[C@@H](C)CC)C(=O)N[C@@H](C)C(=O)N[C@@H](Cc1c[nH]c2ccccc12)C(=O)N[C@@H](CC(C)C)C(=O)N[C@H](C(=O)N[C@@H](Cc1ccc(O)cc1)C(=O)N[C@@H](Cc1c[nH]cn1)C(=O)N[C@@H](CCCCN)C(=O)N[C@H](C(=O)N[C@H](C(=O)N[C@@H](CC(=O)O)C(=O)O)[C@@H](C)O)[C@@H](C)CC)[C@@H](C)CC) [Compound 7] |
| 0.014 | 0.047 | H-H[Aib]EGSFTSELATILDEQAARDFIAWLIHHKITD-OH (SMILES CC[C@H](C)[C@H](NC(=O)[C@H](Cc1ccccc1)NC(=O)[C@H](CC(=O)O)NC(=O)[C@H](CCCNC(=N)N)NC(=O)[C@H](C)NC(=O)[C@H](C)NC(=O)[C@H](CCC(N)=O)NC(=O)[C@H](CCC(=O)O)NC(=O)[C@H](CC(=O)O)NC(=O)[C@H](CC(C)C)NC(=O)[C@@H](NC(=O)[C@@H](NC(=O)[C@H](C)NC(=O)[C@H](CC(C)C)NC(=O)[C@H](CCC(=O)O)NC(=O)[C@H](CO)NC(=O)[C@@H](NC(=O)[C@H](Cc1ccccc1)NC(=O)[C@H](CO)NC(=O)CNC(=O)[C@H](CCC(=O)O)NC(=O)C(C)(C)NC(=O)[C@@H](N)Cc1c[nH]cn1)[C@@H](C)O)[C@@H](C)O)[C@@H](C)CC)C(=O)N[C@@H](C)C(=O)N[C@@H](Cc1c[nH]c2ccccc12)C(=O)N[C@@H](CC(C)C)C(=O)N[C@H](C(=O)N[C@@H](Cc1c[nH]cn1)C(=O)N[C@@H](Cc1c[nH]cn1)C(=O)N[C@@H](CCCCN)C(=O)N[C@H](C(=O)N[C@H](C(=O)N[C@@H](CC(=O)O)C(=O)O)[C@@H](C)O)[C@@H](C)CC)[C@@H](C)CC) [Compound 6] |
| 0.0098 | 0.067 | H-H[Aib]EGTFTSELATILDEQAARDFIAWLIEHKITD-OH (SMILES CC[C@H](C)[C@H](NC(=O)[C@H](Cc1ccccc1)NC(=O)[C@H](CC(=O)O)NC(=O)[C@H](CCCNC(=N)N)NC(=O)[C@H](C)NC(=O)[C@H](C)NC(=O)[C@H](CCC(N)=O)NC(=O)[C@H](CCC(=O)O)NC(=O)[C@H](CC(=O)O)NC(=O)[C@H](CC(C)C)NC(=O)[C@@H](NC(=O)[C@@H](NC(=O)[C@H](C)NC(=O)[C@H](CC(C)C)NC(=O)[C@H](CCC(=O)O)NC(=O)[C@H](CO)NC(=O)[C@@H](NC(=O)[C@H](Cc1ccccc1)NC(=O)[C@@H](NC(=O)CNC(=O)[C@H](CCC(=O)O)NC(=O)C(C)(C)NC(=O)[C@@H](N)Cc1c[nH]cn1)[C@@H](C)O)[C@@H](C)O)[C@@H](C)O)[C@@H](C)CC)C(=O)N[C@@H](C)C(=O)N[C@@H](Cc1c[nH]c2ccccc12)C(=O)N[C@@H](CC(C)C)C(=O)N[C@H](C(=O)N[C@@H](CCC(=O)O)C(=O)N[C@@H](Cc1c[nH]cn1)C(=O)N[C@@H](CCCCN)C(=O)N[C@H](C(=O)N[C@H](C(=O)N[C@@H](CC(=O)O)C(=O)O)[C@@H](C)O)[C@@H](C)CC)[C@@H](C)CC) [Compound 5] |
